Test results taken from PMC4511217 (Genes & Development, 2015).

T1: Rpf2, full-length, N-terminal 6xHis-tagged (Saccharomyces cerevisiae) (Saccharomyces cerevisiae, UniProt P36160 1-344)
T1 sequence: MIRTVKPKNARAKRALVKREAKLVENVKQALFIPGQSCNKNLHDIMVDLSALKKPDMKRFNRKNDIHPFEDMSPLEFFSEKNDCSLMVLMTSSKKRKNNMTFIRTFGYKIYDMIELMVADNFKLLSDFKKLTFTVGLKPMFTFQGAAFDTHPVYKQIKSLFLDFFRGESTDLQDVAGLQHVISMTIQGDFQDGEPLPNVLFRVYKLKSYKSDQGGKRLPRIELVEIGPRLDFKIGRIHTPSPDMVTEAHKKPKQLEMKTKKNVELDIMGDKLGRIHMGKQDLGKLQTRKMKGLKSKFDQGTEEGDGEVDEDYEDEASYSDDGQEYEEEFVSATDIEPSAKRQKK

T2: Rsa4 ribosome assembly factor within Alb1-TAP purified pre-60S particles (yeast (endogenous in pre-60S particles), UniProt P25382 1-515)
T2 sequence: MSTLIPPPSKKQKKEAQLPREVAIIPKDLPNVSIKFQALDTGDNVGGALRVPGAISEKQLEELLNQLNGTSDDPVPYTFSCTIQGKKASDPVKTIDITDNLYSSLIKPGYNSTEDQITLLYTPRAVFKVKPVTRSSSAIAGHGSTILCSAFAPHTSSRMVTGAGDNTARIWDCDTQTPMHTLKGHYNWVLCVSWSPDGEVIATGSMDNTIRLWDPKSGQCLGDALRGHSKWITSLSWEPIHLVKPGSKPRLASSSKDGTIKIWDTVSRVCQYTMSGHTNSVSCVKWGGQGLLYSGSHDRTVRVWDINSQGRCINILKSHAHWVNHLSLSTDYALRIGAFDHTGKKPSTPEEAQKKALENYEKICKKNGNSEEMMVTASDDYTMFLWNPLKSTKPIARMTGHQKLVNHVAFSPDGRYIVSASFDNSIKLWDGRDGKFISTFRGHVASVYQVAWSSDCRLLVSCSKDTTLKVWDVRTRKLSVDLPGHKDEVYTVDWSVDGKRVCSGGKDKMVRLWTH

B1: Rpl5 (uL18) within Alb1-TAP purified pre-60S particles (natural protein)
chain: MAFQKDAKSSAYSSRFQTPFRRRREGKTDYYQRKRLVTQHKAKYNTPKYRLVVRFTNKDIICQIISSTITGDVVLAAAYSHELPRYGITHGLTNWAAAYATGLLIARRTLQKLGLDETYKGVEEVEGEYELTEAVEDGPRPFKVFLDIGLQRTTTGARVFGALKGASDGGLYVPHSENRFPGWDFETEEIDPELLRSYIFGGHVSQYMEELADDDEERFSELFKGYLADDIDADSLEDIYTSAHEAIRADPAFKPTEKKFTKEQYAAESKKYRQTKLSKEERAARVAAKIAALAGQQ
B2: Rrs1, full-length (Saccharomyces cerevisiae) (natural protein)
chain: MSAEDYKNLPVTVEKPIPVVYDLGNLAAFDSNVLDKNDLDSSNARREEKIKSLTRDNVQLLINQLLSLPMKTTTESVGGTGGQSSVMTLLQLPDPTTDLPREKPLPKAKAMTKWEKFAAKKGIKPKERAGKMIYDEASGEWVPKWGYKGANKKLDDQWLVEVDDKVKGTDNELIDPRTLNRAERKRLVKKNEKQQRRNMKNAL
B3: Rrs1 within Alb1-TAP purified pre-60S particles (natural protein)
chain: B2 chain
B4: Rpf2 within Alb1-TAP purified pre-60S particles (natural protein)
chain: T1 sequence

Experiments:
[1] = target: B4; experiment: cryo-EM structure
[2] = target: T1, Rpf2, full-length, N-terminal …; experiment: SEC + other: SAXS
[3] = target: B1; experiment: cryo-EM structure
[4] = target: T2, Rsa4 ribosome assembly factor within …; experiment: cryo-EM structure

Binder: B1
binding result [1]: binds

Binder: B2
stoichiometry N [2]: 1

Binder: B3
binding result [3]: binds
binding result [4]: binds

Binder: B4
binding result [4]: binds
